We go through 1 molecule from paper PMC4786428, “Recombinational branch migration by the RadA/Sms paralog of RecA in Escherichia coli”.

The data set deals with T1, RadA S372A (Escherichia coli, UniProt P24554 1-460, S372A).
T1 sequence: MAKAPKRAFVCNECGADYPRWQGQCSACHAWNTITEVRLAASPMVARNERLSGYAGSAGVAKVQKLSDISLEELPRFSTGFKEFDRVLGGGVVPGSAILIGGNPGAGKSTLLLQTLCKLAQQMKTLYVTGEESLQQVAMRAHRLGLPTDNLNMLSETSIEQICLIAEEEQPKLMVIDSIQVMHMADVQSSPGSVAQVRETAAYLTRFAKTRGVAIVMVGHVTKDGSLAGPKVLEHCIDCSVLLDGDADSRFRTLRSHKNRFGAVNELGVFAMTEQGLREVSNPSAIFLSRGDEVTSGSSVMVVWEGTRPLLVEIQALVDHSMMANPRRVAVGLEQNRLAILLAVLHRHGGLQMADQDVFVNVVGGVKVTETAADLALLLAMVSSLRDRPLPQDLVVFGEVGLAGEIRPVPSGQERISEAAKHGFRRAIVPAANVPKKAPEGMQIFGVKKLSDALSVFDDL
The experiment in a line: EMSA; 1 mM ADP; retains DNA binding; 50 mM Tris-HCl pH 7.5, 10 mM MgCl2, 0.1 mM EDTA, 75 mM NaCl, 5 mM DTT, 100 ug/ml BSA, 1 mM nucleotide, 100 fmol DNA, 37 C for 20-30 min; 6% TBE polyacrylamide gel at room temperature. The settings on record: protein: recombinant; tags: eXact tag cleaved; 2 extra N-terminal residues Thr-Ser remain; chain copies: 6.

B1: poly(dT)30 (ssDNA)
DNA: TTTTTTTTTTTTTTTTTTTTTTTTTTTTTT
Regarding B1, the binding result is listed as “binds”.
